Assay [1] deals with TMEM47-GFP (murine TMEM47 tagged with GFP) (murine) (UniProt Q9JJG6). The assay is described as follows: co-IP.
Assay [2] deals with TMEM47-GFP (murine TMEM47 tagged with GFP) (murine, UniProt Q9JJG6 1-181). The assay is described as follows: co-IP.

Among the data in PMC5322768 (Developmental dynamics : an official publication of the …, 2016) are precipitating fraction values, retold here.

TMEM47-GFP (murine TMEM47 tagged with GFP), sequence (Q9JJG6 whole entry): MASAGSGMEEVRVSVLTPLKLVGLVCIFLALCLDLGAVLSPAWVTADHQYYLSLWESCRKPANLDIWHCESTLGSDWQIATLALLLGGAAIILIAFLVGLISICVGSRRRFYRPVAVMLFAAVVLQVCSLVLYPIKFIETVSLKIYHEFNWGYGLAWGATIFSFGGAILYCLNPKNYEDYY
TMEM47-GFP (murine TMEM47 tagged with GFP) (murine), sequence (Q9JJG6 whole entry): as above

The molecule α-catenin (natural protein) registered a precipitating fraction in assay [1] below 5%.

B1: aPKCλ–myc (myc-tagged aPKCλ) (enzyme, murine, UniProt Q62074 1-595, looked up)
chain: MPTQRDSSTMSHTVACGGGGDHSHQVRVKAYYRGDIMITHFEPSISFEGLCSEVRDMCSFDNEQPFTMKWIDEEGDPCTVSSQLELEEAFRLYELNKDSELLIHVFPCVPERPGMPCPGEDKSIYRRGARRWRKLYCANGHTFQAKRFNRRAHCAICTDRIWGLGRQGYKCINCKLLVHKKCHKLVTIECGRHSLPPEPMMPMDQTMHPDHTQTVIPYNPSSHESLDQVGEEKEAMNTRESGKASSSLGLQDFDLLRVIGRGSYAKVLLVRLKKTDRIYAMKVVKKELVNDDEDIDWVQTEKHVFEQASNHPFLVGLHSCFQTESRLFFVIEYVNGGDLMFHMQRQRKLPEEHARFYSAEISLALNYLHERGIIYRDLKLDNVLLDSEGHIKLTDYGMCKEGLRPGDTTSTFCGTPNYIAPEILRGEDYGFSVDWWALGVLMFEMMAGRSPFDIVGSSDNPDQNTEDYLFQVILEKQIRIPRSLSVKAASVLKSFLNKDPKERLGCHPQTGFADIQGHPFFRNVDWDMMEQKQVVPPFKPNISGEFGLDNFDSQFTNEPVQLTPDDDDIVRKIDQSEFEGFEYINPLLMSAEECV
In assay [2], B1 yielded a precipitating fraction below 5%.

B2: Par6B (natural protein, canine (endogenous in MDCK), UniProt A0A8I3PSX6 1-370, looked up)
chain: MNRSHRHGAGSGCLGTMEVKSKFGAEFRRFSLERSKPGKFEEFYGLLQHVHKIPNVDVLVGYADIHGDLLPINNDDNYHKAVSTANPLLRIFIQKKEEADYSAFGTDTLIKKKNVLTNVLRPDNHRKKPHIVISMPQDFRPVSSIIDVDILPETHRRVRLYKYGTEKPLGFYIRDGSSVRVTPHGLEKVPGIFISRLVPGGLAQSTGLLAVNDEVLEVNGIEVSGKSLDQVTDMMIANSRNLIITVRPANQRNNVVRNSRTSGSSGQSTDNSLLGYPQQVEPSFEPEDEDSDEDDIIIEDNGVPQQIPKAVPNTESFESLTQIELSFESGQNGFIPSNEVSLAPIASGTNTETRAPDQKLLEEDGTIITL
In assay [2], B2 registered a precipitating fraction below 5%.

B3: β-catenin (natural protein, canine (endogenous in MDCK), UniProt B6V8E6 1-781, looked up)
chain: MATQADLMELDMAMEPDRKAAVSHWQQQSYLDSGIHSGATTTAPSLSGKGNPEEEDVDTTQVLYEWEQGFSQSFTQEQVADIDGQYAMTRAQRVRAAMFPETLDEGMQIPSTQFDAAHPTNVQRLAEPSQMLKHAVVNLINYQDDAELATRAIPELTKLLNDEDQVVVNKAAVMVHQLSKKEASRHAIMRSPQMVSAIVRTMQNTNDVETARCTAGTLHNLSHHREGLLAIFKSGGIPALVKMLGSPVDSVLFYAITTLHNLLLHQEGAKMAVRLAGGLQKMVALLNKTNVKFLAITTDCLQILAYGNQESKLIILASGGPQALVNIMRTYTYEKLLWTTSRVLKVLSVCSSNKPAIVEAGGMQALGLHLTDPSQRLVQNCLWTLRNLSDAATKQEGMEGLLGTLVQLLGSDDINVVTCAAGILSNLTCNNYKNKMMVCQVGGIEALVRTVLRAGDREDITEPAICALRHLTSRHQEAEMAQNAVRLHYGLPVVVKLLHPPSHWPLIKATVGLIRNLALCPANHAPLREQGAIPRLVQLLVRAHQDTQRRTSMGGTQQQFVEGVRMEEIVEGCTGALHILARDVHNRIVIRGLNTIPLFVQLLYSPIENIQRVAAGVLCELAQDKEAAEAIEAEGATAPLTELLHSRNEGVATYAAAVLFRMSEDKPQDYKKRLSVELTSSLFRTEPMAWNETADLGLDIGAQGEPLGYRQDDPSYRSFHSGGYGQDALGMDPMMEHEMGGHHPGADYPVDGLPDLGHAQDLMDGLPPGDSNQLAWFDTDL
In assay [2], B3 came in with a precipitating fraction below 5%.
